Source: paper PMC10992250, “Enzymatic synthesis of high-titer nicotinamide mononucleotide with a new nicotinamide riboside kinase and an efficient ATP regeneration system” (Bioresources and Bioprocessing, 2022)

Columns and labels:
[1] = system: T1, Nc1ncnc2c1ncn2[C@@H]1O[C@H](COP(=O)(O)OP(=O)(O)OP(=O)(O)O)[C@@H](O)[C@H]1O; assay: purified protein; format: biochemical, Kluyveromyces marxianus; details: apparent, 0.5 mM NR, 12 mM MgCl2, 50 mM Tris-HCl pH 7.5, 50 mM NaCl, 50 mM KCl, 0.01% BSA, 30 °C
T1 construct: codon-optimised gene in pET21a (NdeI/XhoI, no stop codon; C-terminal vector His tag), E. coli BL21(DE3), Ni column; about 27 kDa

[2] = system: T2, NC(=O)c1ccc[n+]([C@@H]2O[C@H](CO)[C@@H](O)[C@H]2O)c1; assay: purified protein; format: biochemical, Kluyveromyces marxianus; details: apparent, 0.5 mM ATP, 12 mM MgCl2, 50 mM Tris-HCl pH 7.5, 50 mM NaCl, 50 mM KCl, 0.01% BSA, 30 °C
T2 construct: codon-optimised gene in pET21a (NdeI/XhoI, no stop codon; C-terminal vector His tag), E. coli BL21(DE3), Ni column; about 27 kDa

Gbst-AcK = target: T3, Gbst-AcK (Geobacillus stearothermophilus, UniProt A0ACH1E729); assay: HPLC of ATP formation; format: biochemical; details: […] ADP, […] AcP, […] MgCl2, […] KPB pH […] °C
T3 construct: gene ackA; codon-optimised gene in pET21a (NdeI/XhoI, no stop codon; C-terminal vector His tag), E. coli BL21(DE3), Ni column
T3 sequence (A0ACH1E729 1-396): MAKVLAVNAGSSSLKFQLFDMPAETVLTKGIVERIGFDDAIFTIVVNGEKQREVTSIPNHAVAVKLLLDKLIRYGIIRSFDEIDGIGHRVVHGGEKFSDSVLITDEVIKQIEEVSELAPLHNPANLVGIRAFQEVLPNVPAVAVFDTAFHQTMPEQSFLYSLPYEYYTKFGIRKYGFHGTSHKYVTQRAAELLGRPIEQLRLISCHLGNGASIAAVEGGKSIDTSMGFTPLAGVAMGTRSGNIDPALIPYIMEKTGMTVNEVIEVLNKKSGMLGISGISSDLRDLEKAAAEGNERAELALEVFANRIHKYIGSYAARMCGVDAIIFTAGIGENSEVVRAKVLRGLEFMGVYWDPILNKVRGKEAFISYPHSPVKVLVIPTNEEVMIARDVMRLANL

| Compound | Km [1] [µM] | Km [2] [µM] | HPLC of ATP formation (Gbst-AcK) |
| --- | --- | --- | --- |
| Klm-NRK (Kluyveromyces marxianus DMKU3-1042) | 70 ± 6 | 45 ± 11 | – |
| Nc1ncnc2c1ncn2[C@@H]1O[C@H](COP(=O)(O)OP(=O)(O)O)[C@@H](O)[C@H]1O [ADP] | – | – | assayed as the generation of ATP from ADP with a sufficient amount of AcP |
| CC(=O)OP(=O)(O)O [AcP] | – | – | assayed as the generation of ATP from ADP with a sufficient amount of AcP |
